For this assay, the target named is EGFR recombinant human protein (human) (UniProt P00533). The assay is described as follows: SPR; EGFR (20 µg/mL) or BSA (20 µg/mL) covalently attached (EDC/NHS) to a carboxymethylated dextran chip; peptides injected as analytes at 15 µL/min; 25 °C; PBS with 0.01% Tween 20, pH 7.4; global fit, 1:1 Langmuir model with mass transport; KD from koff/kon. A general note: Surface plasmon resonance follows binding to a sensor surface in real time, without labels.

B1: Pep11 (designed binder)
peptide: WSGENGPGFYDYEA
For the molecule B1, the dissociation constant Kd was 252 nM.

B2: Pep22 (designed binder)
peptide: WSGENGPGTFYDYEA
As for B2, the Kd amounted to 595 nM.

B3: Pep6 (designed binder)
peptide: WSGENGPGYFDYEA
Turning to B3, the Kd came to 4800 nM.

Usually Kd stands for a measure of binding affinity in units of concentration.

These data come from paper PMC6353898, “A Rational Approach for Creating Peptides Mimicking Antibody Binding” (Scientific Reports, 2019).
